The data set concerns the molecule itself. As to the kind of experiment: SDS-PAGE with silver stain and Western blot (anti-HA); eluate of the cobalt IMAC column (HRV 3C elution) from DDM-solubilised oocyte membranes, 8% SDS polyacrylamide gel. In general terms: Immunoblotting shows a protein as a band on a membrane.

B1: human GLUT9b (SLC2A9b), recombinant (natural protein, UniProt Q9NRM0-2 1-511, looked up)
chain: MKLSKKDRGEDEESDSAKKKLDWSCSLLVASLAGAFGSSFLYGYNLSVVNAPTPYIKAFYNESWERRHGRPIDPDTLTLLWSVTVSIFAIGGLVGTLIVKMIGKVLGRKHTLLANNGFAISAALLMACSLQAGAFEMLIVGRFIMGIDGGVALSVLPMYLSEISPKEIRGSLGQVTAIFICIGVFTGQLLGLPELLGKESTWPYLFGVIVVPAVVQLLSLPFLPDSPRYLLLEKHNEARAVKAFQTFLGKADVSQEVEEVLAESRVQRSIRLVSVLELLRAPYVRWQVVTVIVTMACYQLCGLNAIWFYTNSIFGKAGIPPAKIPYVTLSTGGIETLAAVFSGLVIEHLGRRPLLIGGFGLMGLFFGTLTITLTLQDHAPWVPYLSIVGILAIIASFCSGPGGIPFILTGEFFQQSQRPAAFIIAGTVNWLSNFAVGLLFPFIQKSLDTYCFLVFATICITGAIYLYFVLPETKNRTYAEISQAFSKRNKAYPPEEKIDSAVTDGKINGRP
modifications: N-glycosylated (shift with PNGase; site not given)
notes: human GLUT9 isoform b (SLC2A9b), cDNA from Origene, amplified with primers from the start codon (ATGAAGCTCAGTAAAAAGGACCGAG) to the stop codon; differs from GLUT9a only in the N-terminal residues; Tag order from the N-terminus: 10xHis, FLAG, HRV 3C (PreScission) site, HA, then GLUT9b; The protein was eluted from the cobalt resin by HRV 3C cleavage, so only the HA tag stays on it (it is …)
In the case of B1, the binding result is “binds”.

Values taken from PMC4186817, “Expression, Purification, and Structural Insights for the Human Uric Acid Transporter, GLUT9, Using the Xenopus laevis Oocytes System” (PLoS ONE, 2014).
